Reference: patent US8173604B2, “Inhibition of Skp2-cyclin a interaction” (Albert Einstein College of Medicine of Yeshiva University, priority 2006, dated 2012)

Tests used:
E2F1-cyclin A binding = target: T1, E2F1-cyclin A binding (Homo sapiens, UniProt P20248); assay: GST pull-down, competition for E2F1-cyclin A binding
T1 construct: expressed in transfected cells; host or cells: 293T (cyclin A/Cdk2); The GST-E2F1 plasmid was a gift and the fusion was purified on GSH beads
Description: (§1) GST pull down, p27 ubiquitylation assay, and cyclin A kinase assay. GST fusion proteins were purified on GSH-beads (Amersham), which were then incubated with transfected cell extracts for 1 hour in 4° C. with rocking. The beads were washed three times with lysis buffer (25 mM Hepes pH 7.6, 100 mM KCl, 0.1 mM EDTA, 10 mM MgCl2, 0.1% NP-40, 10% glycerol, 1 mM DTT) before analysis by SDS-PAGE and Western blotting.
Whether Skp2 competes with another RxL protein, E2F1, for cyclin A binding (Krek et al., 1994) was next determined.

p27-cyclin A interaction = target: T2, p27-cyclin A interaction (Homo sapiens, UniProt P20248); assay: GST pull-down, blocking of p27-cyclin A interaction; type: binding; conditions: GST-p27, myc-cyclin A/Cdk2 transfected 293T cell extracts
T2 construct: expressed in transfected cells; host or cells: 293T (cyclin A/Cdk2)
Description: as §1
Skp2-cyclin A interaction and p27-cyclin A interaction can be blocked by distinct peptides. An important aspect of the RxL-1-IP interaction is that it can be blocked by a short RxL peptide (Adams et al., 1996). If the Skp2-cyclin A/Cdk2 interaction and the p27-cyclin A/Cdk2 interaction are mediated by different sequences on both sides of the interaction, as shown above, it can be predicted that the RxL peptide should not block Skp2-cyclin A interaction. […] Peptide concentrations required for their respective blocking activities were similar for RxL and 4060 peptides.
Skp2 competes with p27/p21, but not E2F1, for binding to cyclin A. Whether the apparently distinct Skp2-cyclin A interaction and p27-cyclin A interaction are competitive against each other was next evaluated. […] Whether the competition between Skp2 and p27/p21 for cyclin A binding could be observed in vivo with endogenous proteins under physiological conditions was next determined. […]

cyclin A/Cdk2 = target: T3, cyclin A/Cdk2 (Homo sapiens, UniProt P20248+P24941); assay: In vitro cyclin A/Cdk2 kinase assay with purified proteins (GST-Rb-C substrate); type: biochemical; conditions: 80 nM protein added to p27-containing kinase reaction
T3 construct: made in house; host or cells: insect cells (baculovirus)
Description: Cyclin A/Cdk2 kinase assays were performed as described previously (Ji et al., 2004). Both immuno-purified myc-cyclin A/Cdk2 on beads and GST-purified and eluted GST-cyclin A/Cdk2 (baculovirus vectors for GST-cyclin A and Cdk2 were provided by Brian Dynlacht) were used. The amounts of purified proteins were determined by comparing them with known amounts of standard proteins in Coomassie blue stained gels. Phosphorylation of GST-Rb-C was quantified with the ImageQuant software. The Ki of various proteins was determined by non-linear least squares analysis. […] Actual amounts of proteins in 7.5×10^4 HeLa cells were then determined (for example, the amounts of p27, Skp2, and cyclin A in 7.5×10^4 HeLa cells were determined to be about 0.1, 0.2, and 0.1 pmoles, respectively, at 14 hours post-replating; and about 0.01, 0.1, and 1.0 pmoles, respectively, at 19 hours post-replating).
For kinase reactions, insect cell-produced and purified GST-cyclin A/Cdk2 was used at a concentration of ˜3 nM, which was the lowest concentration that yielded readily detectible phosphorylation of GST-Rb-C here. […] Phosphorylation of Rb-C was measured and plotted, and the Ki of these various proteins were determined by non-linear least squares analysis (FIG. 7F). […]
It was then determined whether the 4060 peptide could prevent Skp2N from protecting cyclin A/Cdk2 from inhibition by p27. […]

[1] = target: T4, GST-p21 binding to cyclin A/Cdk2 (Homo sapiens, UniProt P20248); assay: GST pull-down, competition with GST-p21 for binding to cyclin A/Cdk2; conditions: increasing amounts of Skp2N
T4 construct: expressed in transfected cells; host or cells: 293T (cyclin A/Cdk2); The GST-p21 plasmid was a gift and the fusion was purified on GSH beads
Description: as §1
Skp2 competes with p27/p21, but not E2F1, for binding to cyclin A. Whether the apparently distinct Skp2-cyclin A interaction and p27-cyclin A interaction are competitive against each other was next evaluated. […] Skp2N also competed with GST-p21 for binding to cyclin A/Cdk2 (FIG. 6A right). Whether the competition between Skp2 and p27/p21 for cyclin A binding could be observed in vivo with endogenous proteins under physiological conditions was next determined. Since abundant amounts of cyclin A are already bound by Skp2 and very little is bound by p27 or p21 in various cell lines (unpublished results), this issue was addressed from the other direction of competition by testing whether p27/p21 could compete Skp2 away from cyclin A. For this purpose, we treated U2OS cells with actinomycin D to activate p53, which led to a significant increase in p21 protein levels.

B1: Skp2N: Skp2 N-terminus (N terminal 100 residues), GST cleaved (protein)
chain: MHVFKTPGPADAMHRKHLQEIPDLSSNVATSFTWGWDSSKTSELLSGMGVSALEKEEPDSENIPQELLSNLGHPESPPRKRLKSKGSDKDFVIVRRPKLN
modifications: left off: a dimerising Fc or GST
notes: Skp2 N-terminus (N terminal 100 residues), GST cleaved
E2F1-cyclin A binding
  Effect on E2F1-cyclin A binding: did not affect
p27-cyclin A interaction
  Blocking of p27-cyclin A interaction: progressively diminished
Cyclin A/Cdk2
  Protection of cyclin A/Cdk2 from inhibition by p27: completely reversed
[1]
  Competition with GST-p21 for binding to cyclin A/Cdk2: competed
